Laboratory results reported in patent publication US20040082509A1 (XIGEN S A, published 2004).

Molecular target: recombinant JNK1α1 (UniProt P45983-2 1-384)
Test: cell-based or functional assay

Chain of recombinant JNK1α1 (P45983 other isoform, or with tags, fused parts or gaps limits assumed): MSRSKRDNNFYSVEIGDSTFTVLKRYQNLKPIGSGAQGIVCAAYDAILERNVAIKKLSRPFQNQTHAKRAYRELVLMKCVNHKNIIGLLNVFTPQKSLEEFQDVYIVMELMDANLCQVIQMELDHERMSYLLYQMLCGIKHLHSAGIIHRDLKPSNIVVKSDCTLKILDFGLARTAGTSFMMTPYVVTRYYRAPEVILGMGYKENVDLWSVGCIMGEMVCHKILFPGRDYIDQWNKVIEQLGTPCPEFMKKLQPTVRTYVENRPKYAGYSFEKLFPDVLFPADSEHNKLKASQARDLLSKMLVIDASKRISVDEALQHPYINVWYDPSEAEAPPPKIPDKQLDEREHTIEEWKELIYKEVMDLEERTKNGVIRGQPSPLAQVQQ

RPKRPTTLNLFPQVPRSQDT [L-JBD20 peptide (20 amino acid minimal JNK-inhibitory sequence of JIP-IB1)]
~1000 nM: IC50, phosphorylation of the JNK target ATF2 | IC50, phosphorylation of the JNK target IRS-1 | IC50, phosphorylation of the JNK target MADD | IC50, phosphorylation of the JNK target bcl-xl
